Measured values reported in PMC3742456.

Biological target: c-kit receptor (CD117), expressed on BJAB c-kit cells (Mus musculus) (UniProt P05532)
Assay: flow cytometry (cell titration, 0-100 nM)
Conditions: apparent Kd on BJAB c-kit cells, background subtracted; Aptamer folded in SELEX buffer (DPBS with Ca/Mg, 5 mM MgCl2, 0.45% glucose, tRNA), 95 C then …; binding in DPBS with Ca/Mg + 0.1% BSA, 1 h on ice; FAM

Chain of UniProt P05532 (P05532 25-979): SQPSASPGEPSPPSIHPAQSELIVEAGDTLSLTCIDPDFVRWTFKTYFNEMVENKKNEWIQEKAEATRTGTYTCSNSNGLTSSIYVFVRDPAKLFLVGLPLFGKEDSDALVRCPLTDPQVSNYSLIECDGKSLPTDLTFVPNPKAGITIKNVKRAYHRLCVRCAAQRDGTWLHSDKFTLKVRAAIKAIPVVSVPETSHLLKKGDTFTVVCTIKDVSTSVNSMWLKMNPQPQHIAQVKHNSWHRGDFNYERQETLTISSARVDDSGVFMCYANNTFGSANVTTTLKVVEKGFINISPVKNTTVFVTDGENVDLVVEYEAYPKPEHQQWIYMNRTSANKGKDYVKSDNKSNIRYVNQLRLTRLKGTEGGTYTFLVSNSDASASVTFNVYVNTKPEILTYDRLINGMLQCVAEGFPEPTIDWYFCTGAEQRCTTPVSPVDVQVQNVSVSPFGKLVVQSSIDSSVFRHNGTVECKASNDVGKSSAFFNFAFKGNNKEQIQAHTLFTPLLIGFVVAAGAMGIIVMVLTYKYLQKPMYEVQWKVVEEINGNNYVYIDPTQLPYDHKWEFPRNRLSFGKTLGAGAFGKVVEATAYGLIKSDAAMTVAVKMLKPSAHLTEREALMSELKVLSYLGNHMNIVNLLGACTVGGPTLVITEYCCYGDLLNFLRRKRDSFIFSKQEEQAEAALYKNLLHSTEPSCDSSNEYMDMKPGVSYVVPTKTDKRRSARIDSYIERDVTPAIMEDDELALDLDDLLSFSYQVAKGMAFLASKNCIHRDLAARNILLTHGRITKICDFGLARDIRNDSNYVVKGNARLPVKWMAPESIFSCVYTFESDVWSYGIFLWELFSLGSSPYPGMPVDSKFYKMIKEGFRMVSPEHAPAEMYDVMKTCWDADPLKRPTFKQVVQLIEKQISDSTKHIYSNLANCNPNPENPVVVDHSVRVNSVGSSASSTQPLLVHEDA

## AGCAGCACAGAGGTCAGATGGCTCAACGCGGGACGGCTCTCCCATTGACCCTATGCGTGCTACCGTGAA [Kit-129]
  Kd: 12.2 nM
